Results published in patent US20110263454A1, “Methods of Identifying Functional Characteristics of Promoters, Transcription Modifying Proteins and Transcription Modulating Agents” (Salk Institute for Biological Studies, priority 2008, published 2011).

B1: RARa: Retinoic acid receptor α (NR1B1), nuclear hormone receptor cDNA driver (protein, UniProt P10276 1-462, looked up)
Retinoic acid receptor alpha: MASNSSSCPTPGGGHLNGYPVPPYAFFFPPMLGGLSPPGALTTLQHQLPVSGYSTPSPATIETQSSSSEEIVPSPPSPPPLPRIYKPCFVCQDKSSGYHYGVSACEGCKGFFRRSIQKNMVYTCHRDKNCIINKVTRNRCQYCRLQKCFEVGMSKESVRNDRNKKKKEVPKPECSESYTLTPEVGELIEKVRKAHQETFPALCQLGKYTTNNSSEQRVSLDIDLWDKFSELSTKCIIKTVEFAKQLPGFTTLTIADQITLLKAACLDILILRICTRYTPEQDTMTFSDGLTLNRTQMHNAGFGPLTDLVFAFANQLLPLEMDDAETGLLSAICLICGDRQDLEQPDRVDMLQEPLLEALKVYVRKRRPSRPHMFPKMLMKITDLRSISAKGAERVITLKMEIPGSMPPLIQEMLENSEGLDTLSGQPGGGGRDGGGLAPPPGSCSPSLSPSSNRSSPATHSP
B2: RORg: RAR-related Orphan Receptor γ (NR1F3), cDNA driver (protein, UniProt P51449 1-518, looked up)
Nuclear receptor ROR-gamma: MDRAPQRQHRASRELLAAKKTHTSQIEVIPCKICGDKSSGIHYGVITCEGCKGFFRRSQRCNAAYSCTRQQNCPIDRTSRNRCQHCRLQKCLALGMSRDAVKFGRMSKKQRDSLHAEVQKQLQQRQQQQQEPVVKTPPAGAQGADTLTYTLGLPDGQLPLGSSPDLPEASACPPGLLKASGSGPSYSNNLAKAGLNGASCHLEYSPERGKAEGRESFYSTGSQLTPDRCGLRFEEHRHPGLGELGQGPDSYGSPSFRSTPEAPYASLTEIEHLVQSVCKSYRETCQLRLEDLLRQRSNIFSREEVTGYQRKSMWEMWERCAHHLTEAIQYVVEFAKRLSGFMELCQNDQIVLLKAGAMEVVLVRMCRAYNADNRTVFFEGKYGGMELFRALGCSELISSIFDFSHSLSALHFSEDEIALYTALVLINAHRPGLQEKRKVEQLQYNLELAFHHHLCKTHRQSILAKLPPKGKLRSLCSQHVERLQIFQHLHPIVVQAAFPPLYKELFSTETESPVGLSK
B3: RARb: Retinoic acid receptor β (NR1B2), nuclear hormone receptor cDNA driver (protein, UniProt P10826 1-455, looked up)
Retinoic acid receptor beta: MTTSGHACPVPAVNGHMTHYPATPYPLLFPPVIGGLSLPPLHGLHGHPPPSGCSTPSPATIETQSTSSEELVPSPPSPLPPPRVYKPCFVCQDKSSGYHYGVSACEGCKGFFRRSIQKNMIYTCHRDKNCVINKVTRNRCQYCRLQKCFEVGMSKESVRNDRNKKKKETSKQECTESYEMTAELDDLTEKIRKAHQETFPSLCQLGKYTTNSSADHRVRLDLGLWDKFSELATKCIIKIVEFAKRLPGFTGLTIADQITLLKAACLDILILRICTRYTPEQDTMTFSDGLTLNRTQMHNAGFGPLTDLVFTFANQLLPLEMDDTETGLLSAICLICGDRQDLEEPTKVDKLQEPLLEALKIYIRKRRPSKPHMFPKILMKITDLRSISAKGAERVITLKMEIPGSMPPLIQEMLENSEGHEPLTPSSSGNTAEHSPSISPSSVENSGVSQSPLVQ
B4: RVRa: Rev-Erb α (NR1D1), cDNA driver (protein, UniProt P20393 1-614, looked up)
Nuclear receptor subfamily 1 …: MTTLDSNNNTGGVITYIGSSGSSPSRTSPESLYSDNSNGSFQSLTQGCPTYFPPSPTGSLTQDPARSFGSIPPSLSDDGSPSSSSSSSSSSSSFYNGSPPGSLQVAMEDSSRVSPSKSTSNITKLNGMVLLCKVCGDVASGFHYGVHACEGCKGFFRRSIQQNIQYKRCLKNENCSIVRINRNRCQQCRFKKCLSVGMSRDAVRFGRIPKREKQRMLAEMQSAMNLANNQLSSQCPLETSPTQHPTPGPMGPSPPPAPVPSPLVGFSQFPQQLTPPRSPSPEPTVEDVISQVARAHREIFTYAHDKLGSSPGNFNANHASGSPPATTPHRWENQGCPPAPNDNNTLAAQRHNEALNGLRQAPSSYPPTWPPGPAHHSCHQSNSNGHRLCPTHVYAAPEGKAPANSPRQGNSKNVLLACPMNMYPHGRSGRTVQEIWEDFSMSFTPAVREVVEFAKHIPGFRDLSQHDQVTLLKAGTFEVLMVRFASLFNVKDQTVMFLSRTTYSLQELGAMGMGDLLSAMFDFSEKLNSLALTEEELGLFTAVVLVSADRSGMENSASVEQLQETLLRALRALVLKNRPLETSRFTKLLLKLPDLRTLNNMHSEKLLSFRVDAQ
B5: RVRb: Rev-Erb β (NR1D2, alternative name RVR), cDNA driver (protein, UniProt Q14995 1-579, looked up)
Nuclear receptor subfamily 1 …: MEVNAGGVIAYISSSSSASSPASCHSEGSENSFQSSSSSVPSSPNSSNSDTNGNPKNGDLANIEGILKNDRIDCSMKTSKSSAPGMTKSHSGVTKFSGMVLLCKVCGDVASGFHYGVHACEGCKGFFRRSIQQNIQYKKCLKNENCSIMRMNRNRCQQCRFKKCLSVGMSRDAVRFGRIPKREKQRMLIEMQSAMKTMMNSQFSGHLQNDTLVEHHEQTALPAQEQLRPKPQLEQENIKSSSPPSSDFAKEEVIGMVTRAHKDTFMYNQEQQENSAESMQPQRGERIPKNMEQYNLNHDHCGNGLSSHFPCSESQQHLNGQFKGRNIMHYPNGHAICIANGHCMNFSNAYTQRVCDRVPIDGFSQNENKNSYLCNTGGRMHLVCPMSKSPYVDPHKSGHEIWEEFSMSFTPAVKEVVEFAKRIPGFRDLSQHDQVNLLKAGTFEVLMVRFASLFDAKERTVTFLSGKKYSVDDLHSMGAGDLLNSMFEFSEKLNALQLSDEEMSLFTAVVLVSADRSGIENVNSVEALQETLIRALRTLIMKNHPNEASIFTKLLLKLPDLRSLNNMHSEELLAFKVHP
B6: RARg: Retinoic acid receptor γ (NR1B3), nuclear hormone receptor cDNA driver (protein, UniProt P13631 1-454, looked up)
Retinoic acid receptor gamma: MATNKERLFAAGALGPGSGYPGAGFPFAFPGALRGSPPFEMLSPSFRGLGQPDLPKEMASLSVETQSTSSEEMVPSSPSPPPPPRVYKPCFVCNDKSSGYHYGVSSCEGCKGFFRRSIQKNMVYTCHRDKNCIINKVTRNRCQYCRLQKCFEVGMSKEAVRNDRNKKKKEVKEEGSPDSYELSPQLEELITKVSKAHQETFPSLCQLGKYTTNSSADHRVQLDLGLWDKFSELATKCIIKIVEFAKRLPGFTGLSIADQITLLKAACLDILMLRICTRYTPEQDTMTFSDGLTLNRTQMHNAGFGPLTDLVFAFAGQLLPLEMDDTETGLLSAICLICGDRMDLEEPEKVDKLQEPLLEALRLYARRRRPSQPYMFPRMLMKITDLRGISTKGAERAITLKMEIPGPMPPLIREMLENPEMFEDDSSQPGPHPNASSEDEVPGGQGKGGLKSPA

Columns and labels:
mAgrp promoter = test: NHR-promoter luciferase screen, mAgrp promoter; type: cell-based, mouse; details: for Results of assays of transcription factor (+/- ligand) with mAgrp: Table 6d, luciferase activity relative to control (control = 1.00); for Luc. act., normalized to lacZ / Normalized Luc. act., normalized to control: mAgrp promoter, HR component with or without ligand; for Normalized Luc. act., normalized to control: relative to control
Protocol: (§1) The use, feasibility, and reproducibility of the functional NHR-promoter screen in a 48-well format have been tested validated. Briefly, there were co-expressed 50 ng of each NHR/NHR homodimer or NHR/RXR heterodimer with 100 ng promoter/luciferase construct and 50 ng of LacZ (as a control for transfection efficiency) in CV-1 cells using Fugene HD (Roche) as a transfection reagent (alternatively or additionally, a CMV-YFP construct can be used as a transfection control). Each of the nuclear hormone receptors that were used in these experiments was cloned into a pcDNA3.1 vector and comprised a C-terminally linked V5H6 tag. Twenty-four hours after transfection, appropriate ligands were added, where applicable, (see Table 5 for various ligands and concentrations and after 48 hrs, samples were assayed for luciferase and LacZ activity. To measure for luciferase activity 15 ul of sample was added to 30 ul of luciferase buffer (20 mM tricine, 1.07 mM MgCarbonate, 2.67 mM MgSulfate, 0.1 mM Naz-EDTA, 5 mM DTT, 5 mM ATP, 0.15 mg/ml CoA, 0.5 mM Luciferin), mixed briefly, and run in a Perkin Elmer Victor 5 luminometer. Thus, the functional NHR-promoter screen was used to observe the transcriptional activity of 29 promoters from various physiological pathways including inflammation, lipid and sugar metabolism, cholesterol transport, xenobiotic metabolism, and circadian rhythm.
(§2) The promoters that facilitate transcription of the indicated gene products that were tested using the protocols described herein are listed in the first row of the table. The nuclear hormone receptors and, where applicable, ligands that were assayed for their transcriptional effects on the promoters are listed in the first column of the table. The data represent the luciferase activity of each sample normalized to both the lacZ activity of that sample and to a control, e.g., no NHR or ligand, as customary in the art. As described previously, these normalizations allow the transcriptional activity of each reporter cell to be compared to other samples.
(§3) Tables 7-40 show the transcriptional effects of the hormone receptors, and, where applicable, ligands (orphan receptors are screened without ligand), on each individual promoter. […] The control data of each table are shown in their last rows.

hIFNg promoter = test: NHR-promoter luciferase screen, hIFNg promoter; type: cell-based, human; details: for Luc. act., normalized to lacZ / Normalized Luc. act., normalized to control: IFNg promoter, HR component without or with ligand; for hIFNg promoter reporter activity: transcription factor +/- ligand, control = 1.00
Protocol: as §1, §2, §3

mUCP2 promoter = test: NHR-promoter luciferase screen, mUCP2 promoter; type: cell-based, mouse; details: for Luc. act., normalized to lacZ / Normalized Luc. act., normalized to control: mUCP2 promoter reporter, co-transfected HR, with or without its ligand; for Normalized Luc. act., normalized to control: relative to control; for luciferase activity normalized to lacZ activity and to a control, mUCP2: mUCP2 promoter-luciferase, CV-1 cells, NHR +/- ligand, control = 1.00
Protocol: as §1, §2, §3

Molecule | Results of assays of transcription factor (+/- ligand) with mAgrp (mAgrp promoter) | Luc. act., normalized to lacZ (mAgrp promoter) | Normalized Luc. act., normalized to control (mAgrp promoter) | Luc. act., normalized to lacZ (hIFNg promoter) | Normalized Luc. act., normalized to control (hIFNg promoter) | hIFNg promoter reporter activity (hIFNg promoter) | Luc. act., normalized to lacZ (mUCP2 promoter) | Normalized Luc. act., normalized to control (mUCP2 promoter) | luciferase activity normalized to lacZ activity and to a control, mUCP2 (mUCP2 promoter)
B1 | 2.05 | 81.1 | 2.0 | 22.0 | 1.4 | 1.39 | 232.0 | 2.1 | 2.11
B2 | 2.51 | 99.6 | 2.5 | 17.9 | 1.1 | 1.12 | 169.5 | 1.5 | 1.54
B3 | 2.27 | 90.2 | 2.3 | 24.4 | 1.5 | 1.53 | 277.3 | 2.5 | 2.52
B4 | 1.21 | 47.9 | 1.2 | 17.9 | 1.1 | 1.13 | 143.0 | 1.3 | 1.30
B5 | 1.05 | 41.7 | 1.1 | 19.5 | 1.2 | 1.22 | 174.4 | 1.6 | 1.59
B6 | 2.06 | 81.9 | 2.1 | 22.8 | 1.4 | 1.43 | 242.5 | 2.2 | 2.21
